± gives the standard deviation of the averaged measurements.
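Further: ATP exposure 15 min at 22 °C before imaging.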

In this data set the test system is ATP. Briefly: switch fluorescence ratio, 500 uM ATP over buffer (Cy3 cluster intensity, sum of 5 cycles each) (fold (ratio)); higher = stronger signal-on switching upon ATP binding; sequences stand for … in TCGTCGGCAGCGTCAGATGTGTATAAGAGACAGTTTTTTTTTTTTTTTTTTTTTTTTT…TC. The note with it: aptamer strand: ATP DNA aptamer (quencher-CACCTGGGGGAGTATTGCGGAGGAAGG + anchor), 100 nM annealed; ATP concentration: 500 uM. The procedure, abridged: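 Clusters carrying Cy3-labelled switching strands on a modified Illumina MiSeq flow-cell were annealed to 100 nM quencher-labelled ATP aptamer and imaged in selection buffer. They were imaged again after 15 min with 500 uM ATP at 22 °C, over five buffer/ATP cycles with NaOH stripping and re-annealing in between. For each cluster, the fluorescence ratio is the summed Cy3 intensity of the target cycles divided by that of the buffer cycles, averaged per switch-domain sequence. Clusters outside 100-1000 RFU were left out.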
With TAAAAATCGA, the switch fluorescence ratio was 0.993 ± 0.0013. As for GTAAGAAGGA, the figure is 1.02 ± 0.07; as for CTTATAGTAG, 0.9847 ± 0.0066; as for ACGGGTTCGT, 1.01 ± 0.012. Turning to CGTGGGAGAG, the switch fluorescence ratio is 0.983 ± 0.021. As for TTAGGGACAG, the figure is 0.987 ± 0.027; as for GTGTATCGTC, 0.9819 ± 0.0014; as for AATGGCATTT, 0.989 ± 0.025. As for GTATGTAGGG, the figure is 0.995 ± 0.015; as for TTGTCGGCG, 1 ± 0.013; as for CTTTCGTCTG, 1.01 ± 0.035. As for TATGAGGGGC, the figure is 0.967 ± 0.013. AGCCTGGTGG: the switch fluorescence ratio was 1.05 ± 0.013. Regarding GAGATGTTTA, the switch fluorescence ratio came out at 0.987 ± 0.029. As for AACGTAGTCG, the figure is 1.031 ± 0.0046; as for GATGCAAAGG, 1.131 ± 0.011. As for TCAATTGGGA, the figure is 0.983 ± 0.055; as for GCAACGGGTT, 1.16 ± 0.21; as for TTTGTGGGTT, 0.997 ± 0.025.

With AAGATTTAAG, the switch fluorescence ratio amounted to 1.02 ± 0.014. As for AGGTCGTGGG, the figure is 0.996 ± 0.016; as for AGGTAAGGGT, 0.974 ± 0.035. As for ATCGGGGGTC, the figure is 0.946 ± 0.032; as for ACTGGTATAG, 1.041 ± 0.0019; as for TAGAGGATCA, 1 ± 0.056. As for GGACAAGGGG, the figure is 0.962 ± 0.038; as for CGAAAATTAA, 1 ± 0.047.

Take GAATGGGGAT: the switch fluorescence ratio is 1.01 ± 0.076. As for ATTGGAAGGC, the figure is 0.967 ± 0.017; as for AGTTCCATCG, 1.05 ± 0.047. As for ATGGTAGTGG, the figure is 0.995 ± 0.026.

For ATCAATCTCG, the switch fluorescence ratio turned out to be 1.017 ± 0.0093. As for TTTAAAGATG, the figure is 0.999 ± 0.018; as for TAGGGTGTCA, 1.03 ± 0.047; as for CGGGGTGAGA, 0.9809 ± 0.0069.

With AAGGATCGTT, the switch fluorescence ratio came to 1 ± 0.018.

As to TAAATCAGAG, the switch fluorescence ratio is 0.99 ± 0.03. As for GTGGTGCGGA, the figure is 0.943 ± 0.052; as for TTGTACGCTA, 1.82 ± 0.73. As for ACTGTCTAAT, the figure is 1.01 ± 0.026. On to TAGATGACGG, for which the switch fluorescence ratio came to 1.01 ± 0.041. Take TTAAAGCAGT: the switch fluorescence ratio was determined as 1.56 ± 0.47. As for AATTAAGGGG, the figure is 0.997 ± 0.029; as for TTAAAGGGCG, 0.976 ± 0.046; as for AGAGAAAGGC, 1.08 ± 0.051. Take TTTGGTTAGG: the switch fluorescence ratio came to 0.985 ± 0.019. For the sequence ATTTAGTTTT, the switch fluorescence ratio stood at 0.976 ± 0.013.

Regarding ATCGAGGGGA, the switch fluorescence ratio was 0.978 ± 0.019. Consider TCATTTATTG, for which the switch fluorescence ratio was found to be 1.02 ± 0.024. GGTGTTTGTT: the switch fluorescence ratio stood at 0.956 ± 0.065. As for ACGGGGCGTA, the figure is 0.98581 ± 0.00064. As for TTGGCGGAGG, the figure is 1.007 ± 0.0058; as for TTGATCAGTG, 1.01 ± 0.015.

On to TTTATAACAC, for which the switch fluorescence ratio came out at 1.05 ± 0.013. For the sequence TGAGAGGATC, the switch fluorescence ratio is 1.018 ± 0.0025. As for ACGGATGGGG, the figure is 0.997 ± 0.019; as for CGTGGGAATT, 0.977 ± 0.019. As for TTTTTCCGGA, the figure is 0.997 ± 0.048. As for CAGGACTTGT, the figure is 0.969 ± 0.02; as for GGGGGTTTTC, 1.01 ± 0.04. In the case of AGGGGTAGCG, the switch fluorescence ratio came to 0.9539 ± 0.0073. As for AGGGAGCGCG, the figure is 0.995 ± 0.011. As for AATTACGTAA, the figure is 1.06 ± 0.012; as for ATCGCGTGTG, 1.009 ± 0.0062. As for TGTATGGGGA, the figure is 0.9997 ± 0.004; as for ACGGGGTTTG, 0.995 ± 0.018; as for AGCGAAAGGA, 1.01 ± 0.023. Consider CAATGGCTTT, for which the switch fluorescence ratio worked out at 0.9983 ± 0.0059. As for TACAAAGAGT, the figure is 1.04 ± 0.025; as for TCGGTTAGTA, 0.9883 ± 0.0021. As for GGGGAGGAGT, the figure is 1.01 ± 0.026; as for ACGGTAACGT, 1.02 ± 0.0058; as for GCTCCTCACA, 1.67 ± 0.2. Turning to AACCTTGGGG, the switch fluorescence ratio was 1.11 ± 0.079. As for CGGGTGAAGG, the figure is 1.06 ± 0.049. Consider GCTACATGGG, for which the switch fluorescence ratio stood at 1.02 ± 0.015. As for TTTTAACCTG, the figure is 1.01 ± 0.046; as for TTTTAATTGG, 1.01 ± 0.066.
